Assay [1] has as its target Mycobacterium tuberculosis dUTPase mutant mDut H145F, His-tagged (Mycobacterium tuberculosis (strain H37Rv)) (UniProt P9WNS5). The assay is described as follows: BLI; […] (218.7 nM) […]; 28°C; 1:1 kinetic model.
Assay [2] shares this target. In words: BLI; […] (218.7 nM) […]; 28°C; 1:1 kinetic model. This is another data set of the same source. For orientation: In BLI a coated tip is dipped into the sample, and binding shifts an interference pattern.

Where two headings read alike, the source gives them in different places.

In the case of “Stl^N-ter (SaPIbov1 Stl, N-terminal DNA-binding domain and middle domain, residues 1 to 156) (domain or fragment)”, in assay [1], the Kd (as a rule, the equilibrium constant for the complex coming apart) amounted to 12.5 nM; the koff (commonly the first-order rate constant of dissociation) was determined as 0.00483 s⁻¹; the kon (as a rule, a measure of how fast the partners come together) is 388000 M⁻¹ s⁻¹. For the same substance, the Kd in assay [2] amounted to 12.4 nM.

The values above are taken from article PMC9927489 (Microbiology Spectrum, 2023).
